Consider 1 molecule from article PMC3353895, “Crystal Structure of a Complex of DNA with One AT-Hook of HMGA1”.

The data set has as its target T1, HMGA1 third AT-hook (DBD3) peptide (UniProt P17096 81-89).
T1 chain: RKPRGRPKK
Nature of the data set: X-ray crystallography; crystals: 5 mM MgCl2, 0.25 mM NiCl2, MPD up to 48%; 1:2 duplex:peptide; 2.27 A; only one of two AATT sites occupied; Crystallization by vapor diffusion: 25 mM Tris-HCl pH 7.5, 25 mM ammonium acetate, 5 mM MgCl2, 0.25 mM NiCl2, 5% MPD (raised to 48%), 0.2 mM DNA, 0.4 mM peptide, 4 C. Conditions: blunt; self-complementary, 2 copies of the strand.

B1: d(CGAATTAATTCG)2 (dsDNA)
DNA 1: CGAATTAATTCG
DNA 2: CGAATTAATTCG
B1: the binding result is reported as “binds”.
